Here are results for three molecules from patent publication US20250076311A1 (Chugai, published 2025).

Test [1] has as its target T1, cynomolgus monkey FcγRIIIaS extracellular domain with C-terminal His-tag (cynomolgus monkey, UniProt Q8SPW2 21-206 at identity 1.00)).
T1 construct: also called cyno FcgRIIIaS; cynoFcγRIIIaS
T1 chain: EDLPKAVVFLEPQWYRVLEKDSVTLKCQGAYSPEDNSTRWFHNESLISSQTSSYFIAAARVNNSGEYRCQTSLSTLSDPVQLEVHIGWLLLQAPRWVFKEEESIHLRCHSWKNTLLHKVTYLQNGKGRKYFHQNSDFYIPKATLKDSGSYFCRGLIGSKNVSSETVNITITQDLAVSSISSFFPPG
The test is described as follows: SPR, KD(SG1)/KD(variant). Here is the method: (§1) The kinetic analysis of interactions between these antibodies and FcγR was carried out using BIACORE® T200 or BIACORE® 4000 (GE Healthcare). HBS-EP+ (GE Healthcare) was used as the running buffer, and the measurement temperature was set to 25° C. […] After the measurement, the antibody captured on the chip was washed off by allowing reaction with 10 mM glycine-HCl, pH1.5 and 25 mM NaOH so that the chip was regenerated and used repeatedly. The sensorgrams obtained as measurement results were analyzed by the 1:1 Langmuir binding model using the BIACORE® Evaluation Software to calculate the binding rate constant ka (L/mol/s) and dissociation rate constant kd (1/s), and the dissociation constant KD (mol/L) was calculated from these values. […] Regarding such interactions, KD values were calculated using the following 1:1 binding model described in BIACORE® T100 Software Handbook BR1006-48 Edition AE.
(In general: SPR reads the build-up and loss of mass on a sensor chip optically.)

For test [2], the target named is T1, cynomolgus monkey FcγRIIIaS …. The test is described as follows: SPR, antibody captured, FcγR analyte. Here is the method:
as §1

Test [3] has as its target T2, human FcγRIIIaV extracellular domain with C-terminal His-tag (human, UniProt P08637 17-208).
T2 construct: also called human FcgRIIIaV
The test is described as follows: SPR (Biacore), antibody captured, FcgR as analyte. The method, then:
as §1

Test [4] addresses T3, cynomolgus monkey FcγRIIa1 extracellular domain with C-terminal His-tag (cynomolgus monkey).
T3 construct: also called cyno FcgRIIa1; cynoFcγRIIa1
T3 chain: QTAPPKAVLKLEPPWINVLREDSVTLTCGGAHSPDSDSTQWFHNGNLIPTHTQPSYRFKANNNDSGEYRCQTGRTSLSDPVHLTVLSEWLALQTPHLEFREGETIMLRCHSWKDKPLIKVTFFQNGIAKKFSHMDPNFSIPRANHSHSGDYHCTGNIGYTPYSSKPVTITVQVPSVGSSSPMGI
The test can be described thus: SPR (Biacore), antibody captured, FcgR as analyte. The method, then:
as §1

T2 sequence (P08637 17-208 F176V): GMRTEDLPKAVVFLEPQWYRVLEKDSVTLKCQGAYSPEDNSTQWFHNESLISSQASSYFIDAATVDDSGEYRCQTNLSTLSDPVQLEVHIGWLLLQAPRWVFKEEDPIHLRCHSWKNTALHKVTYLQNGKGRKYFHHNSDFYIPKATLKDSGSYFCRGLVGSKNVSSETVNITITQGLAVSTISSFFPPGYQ

B1: MS1032LO06-MY335 (antibody, human IgG1, kappa)
heavy: QVTLKESGPVLVKPTETLTLTCTVSGIDLSHDDISWVRQAPGKGLEWVGIISYAGSTYYASWAKGRLTISKDTSKNQVVLTMTNMDPVDTATYYCARGVPAYSHGGDLWGQGTLVTVSSASTKGPSVFPLAPSSKSTSGGTAALGCLVKDYFPEPVTVSWNSGALTSGVHTFPAVLQSSGLYSLSSVVTVPSSSLGTQTYICNVNHKPSNTKVDKKVEPKSCDKTHTCPPCPAPELLTGPSVFLFPPKPKDTLMISRTPEVTCVVVDVSDEDPEVKFNWYVDGVEVHNAKTKPREEQYNSTYRVVSVLTVLHRDWLNGKEYKCKVSNKALPKPIEKTISKAKGQPREPQVYTLPPSREEMTKNQVSLTCLVKGFYPSDIAVEWESNGQPENNYKTTPPVLDSDGSFFLYSKLTVKKSRWQQGNVFSCSVMHEALHNHYTQKSLSLSP
light: DIVMTQSPATLSLSPGERATLSCTSSQSVYHANWLSWFQQKPGQPPKLLIYWASTLAYGVPSRFSGSGSGTDFTLTISSLQPEDAATYYCAGGYGGGRYAFGQGTKVEIKRTVAAPSVFIFPPSDEQLKSGTASVVCLLNNFYPREAKVQWKVDNALQSGNSQESVTEQDSKDSTYSLSSTLTLSKADYEKHKVYACEVTHQGLSSPVTKSFNRGEC
notes: also called M103205H795-MY335; copies: 2 + 2
As a reminder, the Kd is the constant that tells how readily two partners part at equilibrium. For B1, the “KD fold (SG1 = 1)” value in test [1] came out at 0.24 fold. This molecule yielded a Kd in test [2] of 1500 nM.

B2: M103205H795-MY536 / M103202L889-SK1 (antibody, human IgG1, kappa, name in EU numbering)
heavy: QVTLKESGPVLVKPTETLTLTCTVSGIDLSHDDISWVRQAPGKGLEWVGIISYAGSTYYASWAKGRLTISKDTSKNQVVLTMTNMDPVDTATYYCARGVPAYSHGGDLWGQGTLVTVSSASTKGPSVFPLAPSSKSTSGGTAALGCLVKDYFPEPVTVSWNSGALTSGVHTFPAVLQSSGLYSLSSVVTVPSSSLGTQTYICNVNHKPSNTKVDKKVEPKSCDKTHTCPPCPGPEWLTGPVVFLFPPKPKDTLMISRTPEVTCVVVDVSDEDPEVKFNWYVDGVEVHNAKTKPREEQYNSTYRVVSVLTVLHQDWLNGKEYKCKVSNKALPKPIEKTISKAKGQPREPQVYTLPPSREEMTKNQVSLTCLVKGFYPSDIAVEWESNGQPENNYKTTPPVLDSDGSFFLYSKLTVDKSRWQQGNVFSCSVMHEALHNHYTQKSLSLSP
light: DIVMTQSPATLSLSPGERATLSCTSSQSVYHANWLSWFQQKPGQPPKLLIYWASTLAYGVPSRFSGSGSGTDFTLTISSLQPEDAATYYCAGGYGGGRYAFGQGTKVEIKRTVAAPSVFIFPPSDEQLKSGTASVVCLLNNFYPREAKVQWKVDNALQSGNSQESVTEQDSKDSTYSLSSTLTLSKADYEKHKVYACEVTHQGLSSPVTKSFNRGEC
In the case of B2, the equilibrium dissociation constant (Kd) in test [3] came out at 2700 nM; in test [4] it was 1200 nM.

B3: M103205H795-MY535 / M103202L889-SK1 (antibody, human IgG1, kappa, name in EU numbering)
heavy: QVTLKESGPVLVKPTETLTLTCTVSGIDLSHDDISWVRQAPGKGLEWVGIISYAGSTYYASWAKGRLTISKDTSKNQVVLTMTNMDPVDTATYYCARGVPAYSHGGDLWGQGTLVTVSSASTKGPSVFPLAPSSKSTSGGTAALGCLVKDYFPEPVTVSWNSGALTSGVHTFPAVLQSSGLYSLSSVVTVPSSSLGTQTYICNVNHKPSNTKVDKKVEPKSCDKTHTCPPCPGPEWLTGPSVFLFPPKPKDTLMISRTPEVTCVVVDVSDEDPEVKFNWYVDGVEVHNAKTKPREEQYNSTYRVVSVLTVLHQDWLNGKEYKCKVSNKALPKPIEKTISKAKGQPREPQVYTLPPSREEMTKNQVSLTCLVKGFYPSDIAVEWESNGQPENNYKTTPPVLDSDGSFFLYSKLTVDKSRWQQGNVFSCSVMHEALHNHYTQKSLSLSP
light: DIVMTQSPATLSLSPGERATLSCTSSQSVYHANWLSWFQQKPGQPPKLLIYWASTLAYGVPSRFSGSGSGTDFTLTISSLQPEDAATYYCAGGYGGGRYAFGQGTKVEIKRTVAAPSVFIFPPSDEQLKSGTASVVCLLNNFYPREAKVQWKVDNALQSGNSQESVTEQDSKDSTYSLSSTLTLSKADYEKHKVYACEVTHQGLSSPVTKSFNRGEC
Regarding B3, the values for the Kd in test [3] and in test [4] were 5200 nM and 1500 nM, respectively.
